Test results as given in patent US20160264649A1.

Key:
Test in all cases: cell-based or functional assay
[1] = target: HIV-1 Env of pseudovirus isolate MGRM-G-015 (subtype G) (HIV-1)
[2] = target: HIV-1 Env of pseudovirus isolate MGRM-G-028 (subtype G) (HIV-1)
[3] = target: HIV-1 Env of isolate 92WR021 (subtype A) (HIV-1)
[4] = target: HIV-1 Env of isolate MGRM-AE-002 (subtype AE) (HIV-1)
[5] = target: HIV-1 Env of isolate MG RM-C-024 (subtype C) (HIV-1)
[6] = target: HIV-1 Env of isolate MGRM-Chronic-B-002 (subtype B) (HIV-1)
[7] = target: HIV-1 Env of isolate MGRM-Chronic-B-010 (subtype B) (HIV-1)
[8] = target: HIV-1 Env of isolate MGRM-D-026 (subtype D) (HIV-1)
[9] = target: HIV-1 Env of isolate PVO.4 (subtype B) (HIV-1)
[10] = target: HIV-1 Env of isolate 6535.3 (subtype B) (HIV-1)
[11] = target: HIV-1 Env of isolate MGRM-Chronic-B-004 (subtype B) (HIV-1)
[12] = target: HIV-1 Env of isolate 92TH021 (subtype AE) (HIV-1)
[13] = target: HIV-1 Env of pseudovirus isolate MGRM-G-016 (subtype G) (HIV-1)
[14] = target: HIV-1 Env of pseudovirus isolate MGRM-G-011 (subtype G) (HIV-1)
[15] = target: HIV-1 Env of pseudovirus isolate MGRM-G-001 (subtype G) (HIV-1)
[16] = target: HIV-1 Env of isolate VLGCB3 (subtype B) (HIV-1)
[17] = target: HIV-1 Env of isolate MGRM-D-024 (subtype D) (HIV-1)
[18] = target: HIV-1 Env of isolate MG RM-C-026 (subtype C) (HIV-1)
[19] = target: HIV-1 Env of isolate MGRM-D-004 (subtype D) (HIV-1)
[20] = target: HIV-1 Env of isolate 92WR009 (subtype A) (HIV-1)
[21] = target: HIV-1 Env of isolate 93MW959 (subtype C) (HIV-1)
[22] = target: HIV-1 Env of isolate MGRM-Chronic-B-018 (subtype B) (HIV-1)
[23] = target: HIV-1 Env of isolate MGRM-F1-016 (subtype F) (HIV-1)
[24] = target: HIV-1 Env of isolate 98IN022 (subtype C) (HIV-1)
[25] = target: HIV-1 Env of isolate MGRM-D-002 (subtype D) (HIV-1)
[26] = target: HIV-1 Env of isolate 94 KE 105 (subtype AC) (HIV-1)
[27] = target: HIV-1 Env of pseudovirus isolate MGRM-G-009 (subtype G) (HIV-1)
[28] = target: HIV-1 Env of isolate 93TH305 (subtype B) (HIV-1)
[29] = target: HIV-1 Env of isolate MGRM-AE-005 (subtype AE) (HIV-1)
[30] = target: HIV-1 Env of isolate MGRM-F1-012 (subtype F) (HIV-1)
[31] = target: HIV-1 Env of isolate SC422661.8 (subtype B) (HIV-1)
[32] = target: HIV-1 Env of isolate MGRM-AE-007 (subtype AE) (HIV-1)
[33] = target: HIV-1 Env of isolate MG RM-C-027 (subtype C) (HIV-1)
[34] = target: HIV-1 Env of isolate APV_17 (subtype B) (HIV-1)
[35] = target: HIV-1 Env of pseudovirus isolate MGRM-G-024 (subtype G) (HIV-1)
[36] = target: HIV-1 Env of isolate MGRM-D-005 (subtype D) (HIV-1)
[37] = target: HIV-1 Env of isolate MGRM-Chronic-B-017 (subtype B) (HIV-1)
[38] = target: HIV-1 Env of isolate MGRM-Chronic-B-012 (subtype B) (HIV-1)
[39] = target: HIV-1 Env of isolate 92UG031 (subtype A) (HIV-1)
[40] = target: HIV-1 Env of isolate MGRM-F1-004 (subtype F) (HIV-1)
[41] = target: HIV-1 Env of isolate VLGCA1 (subtype A) (HIV-1)
[42] = target: HIV-1 Env of isolate MG RM-C-023 (subtype C) (HIV-1)
[43] = target: HIV-1 92RW008 Env (HIV-1)
[44] = target: HIV-1 Env of isolate MGRM-F1-013 (subtype F) (HIV-1)
[45] = target: HIV-1 Env of pseudovirus isolate MGRM-G-017 (subtype G) (HIV-1)
[46] = target: HIV-1 Env of isolate MGRM-F1-018 (subtype F) (HIV-1)

## 1496_C09 (PG9) (TCN-109) (antibody)
[1]
  IC50: 6.6 µg/mL
[2]
  IC50: 0.891 µg/mL
[3]
  IC50 (pseudovirus neutralization): 0.027 µg/mL
[4]
  IC50 (pseudovirus neutralization): 0.04 µg/mL
[5]
  IC50 (µg/mL), pseudovirus neutralization: 0.227 µg/mL
[6]
  IC50: 3.44 µg/mL
[7]
  IC50: 0.004 µg/mL
[8]
  IC50 (pseudovirus neutralization): 23.7 µg/mL
[9]
  IC50: 24.8 µg/mL
[10]
  IC50: 1.05 µg/mL
[11]
  IC50: 0.533 µg/mL
[12]
  IC50 (pseudovirus neutralization): 0.059 µg/mL
[13]
  IC50: 1.36 µg/mL
[14]
  IC50: 0.335 µg/mL
[15]
  IC50: 0.166 µg/mL
[16]
  IC50 (µg/mL), pseudovirus neutralization: 0.022 µg/mL
[17]
  IC50 (pseudovirus neutralization): 0.038 µg/mL
[18]
  IC50 (µg/mL), pseudovirus neutralization: 0.06 µg/mL
[19]
  IC50 (pseudovirus neutralization): 0.06 µg/mL
[20]
  IC50 (pseudovirus neutralization): 0.05 µg/mL
[21]
  IC50 (µg/mL), pseudovirus neutralization: 0.054 µg/mL
[22]
  IC50: 0.216 µg/mL
[23]
  IC50 (pseudovirus neutralization): 0.518 µg/mL
[24]
  IC50 (µg/mL), pseudovirus neutralization: 0.003 µg/mL
[25]
  IC50 (pseudovirus neutralization): 0.021 µg/mL
[26]
  IC50 (pseudovirus neutralization): 37.9 µg/mL
[27]
  IC50: 10.7 µg/mL
[28]
  IC50: 8.12 µg/mL
[29]
  IC50 (pseudovirus neutralization): 0.282 µg/mL
[30]
  IC50 (pseudovirus neutralization): 0.023 µg/mL
[31]
  IC50: 1.48 µg/mL
[32]
  IC50 (pseudovirus neutralization): 0.18 µg/mL
[33]
  IC50 (µg/mL), pseudovirus neutralization: 5.36 µg/mL
[34]
  IC50: 34.8 µg/mL
[35]
  IC50: 0.163 µg/mL
[36]
  IC50 (pseudovirus neutralization): 1.8 µg/mL
[37]
  IC50: 0.688 µg/mL
[38]
  IC50: 0.2 µg/mL
[39]
  IC50 (pseudovirus neutralization): 3.6 µg/mL
[40]
  IC50 (pseudovirus neutralization): 0.175 µg/mL
[41]
  IC50 (pseudovirus neutralization): 0.069 µg/mL
[42]
  IC50 (µg/mL), pseudovirus neutralization: 0.614 µg/mL
[43]
  IC50: 0.006 µg/mL
[44]
  IC50 (pseudovirus neutralization): 1.25 µg/mL
[45]
  IC50: 0.104 µg/mL
[46]
  IC50 (pseudovirus neutralization): 0.019 µg/mL

## PGV04 (antibody)
[1]
  IC50: 0.333 µg/mL
[2]
  IC50: 0.352 µg/mL
[3]
  IC50 (pseudovirus neutralization): 0.038 µg/mL
[4]
  IC50 (pseudovirus neutralization): 0.569 µg/mL
[5]
  IC50 (µg/mL), pseudovirus neutralization: > 50 µg/mL
[6]
  IC50: 0.142 µg/mL
[7]
  IC50: 0.744 µg/mL
[8]
  IC50 (pseudovirus neutralization): 1.76 µg/mL
[9]
  IC50: 0.454 µg/mL
[10]
  IC50: 0.757 µg/mL
[11]
  IC50: 0.047 µg/mL
[12]
  IC50 (pseudovirus neutralization): 1.29 µg/mL
[13]
  IC50: 0.019 µg/mL
[14]
  IC50: 0.78 µg/mL
[15]
  IC50: > 50 µg/mL
[16]
  IC50 (µg/mL), pseudovirus neutralization: 0.045 µg/mL
[17]
  IC50 (pseudovirus neutralization): > 50 µg/mL
[18]
  IC50 (µg/mL), pseudovirus neutralization: 0.303 µg/mL
[19]
  IC50 (pseudovirus neutralization): 43.2 µg/mL
[20]
  IC50 (pseudovirus neutralization): 0.108 µg/mL
[21]
  IC50 (µg/mL), pseudovirus neutralization: > 50 µg/mL
[22]
  IC50: 0.164 µg/mL
[23]
  IC50 (pseudovirus neutralization): 0.268 µg/mL
[24]
  IC50 (µg/mL), pseudovirus neutralization: 5.69 µg/mL
[25]
  IC50 (pseudovirus neutralization): 0.322 µg/mL
[26]
  IC50 (pseudovirus neutralization): 2.98 µg/mL
[27]
  IC50: 0.043 µg/mL
[28]
  IC50: 0.255 µg/mL
[29]
  IC50 (pseudovirus neutralization): 0.051 µg/mL
[30]
  IC50 (pseudovirus neutralization): 0.25 µg/mL
[31]
  IC50: 0.11 µg/mL
[32]
  IC50 (pseudovirus neutralization): 5.75 µg/mL
[33]
  IC50 (µg/mL), pseudovirus neutralization: 2.76 µg/mL
[34]
  IC50: 0.309 µg/mL
[35]
  IC50: 0.033 µg/mL
[36]
  IC50 (pseudovirus neutralization): > 50 µg/mL
[37]
  IC50: 0.129 µg/mL
[38]
  IC50: > 50 µg/mL
[39]
  IC50 (pseudovirus neutralization): 4.46 µg/mL
[40]
  IC50 (pseudovirus neutralization): 0.58 µg/mL
[41]
  IC50 (pseudovirus neutralization): 0.024 µg/mL
[42]
  IC50 (µg/mL), pseudovirus neutralization: 0.128 µg/mL
[43]
  IC50: 0.014 µg/mL
[44]
  IC50 (pseudovirus neutralization): 0.084 µg/mL
[45]
  IC50: 0.065 µg/mL
[46]
  IC50 (pseudovirus neutralization): 0.027 µg/mL

## VRC01 (antibody)
[1]
  IC50: 0.548 µg/mL
[2]
  IC50: 0.164 µg/mL
[3]
  IC50 (pseudovirus neutralization): 0.066 µg/mL
[4]
  IC50 (pseudovirus neutralization): 0.217 µg/mL
[5]
  IC50: 3.4 µg/mL
[6]
  IC50: 0.117 µg/mL
[7]
  IC50: 0.156 µg/mL
[8]
  IC50 (pseudovirus neutralization): 0.435 µg/mL
[9]
  IC50: 0.218 µg/mL
[10]
  IC50: 1.75 µg/mL
[11]
  IC50: 0.055 µg/mL
[12]
  IC50 (pseudovirus neutralization): 0.616 µg/mL
[13]
  IC50: 0.063 µg/mL
[14]
  IC50: 0.065 µg/mL
[15]
  IC50: 0.0371 µg/mL
[16]
  IC50: 0.108 µg/mL
[17]
  IC50 (pseudovirus neutralization): 0.366 µg/mL
[18]
  IC50: 0.707 µg/mL
[19]
  IC50 (pseudovirus neutralization): 1.25 µg/mL
[20]
  IC50 (pseudovirus neutralization): 0.187 µg/mL
[21]
  IC50: 0.053 µg/mL
[22]
  IC50: 0.328 µg/mL
[23]
  IC50 (pseudovirus neutralization): 0.517 µg/mL
[24]
  IC50: 0.342 µg/mL
[25]
  IC50 (pseudovirus neutralization): 0.252 µg/mL
[26]
  IC50 (pseudovirus neutralization): 0.499 µg/mL
[27]
  IC50: 0.073 µg/mL
[28]
  IC50: 0.243 µg/mL
[29]
  IC50 (pseudovirus neutralization): 0.029 µg/mL
[30]
  IC50 (pseudovirus neutralization): 0.488 µg/mL
[31]
  IC50: 0.179 µg/mL
[32]
  IC50 (pseudovirus neutralization): 0.835 µg/mL
[33]
  IC50: 0.125 µg/mL
[34]
  IC50: 0.477 µg/mL
[35]
  IC50: 0.025 µg/mL
[36]
  IC50 (pseudovirus neutralization): > 50 µg/mL
[37]
  IC50: 0.141 µg/mL
[38]
  IC50: 1.03 µg/mL
[39]
  IC50 (pseudovirus neutralization): 0.469 µg/mL
[40]
  IC50 (pseudovirus neutralization): 0.305 µg/mL
[41]
  IC50 (pseudovirus neutralization): 0.163 µg/mL
[42]
  IC50: 0.077 µg/mL
[43]
  IC50: 0.037 µg/mL
[44]
  IC50 (pseudovirus neutralization): 0.17 µg/mL
[45]
  IC50: 0.124 µg/mL
[46]
  IC50 (pseudovirus neutralization): 0.032 µg/mL
